Experimental data from the supplement of paper PMC11246515.
± gives the standard deviation of the averaged measurements.

Test: total protein half-life in vivo (active degradation + dilution); higher = more stable protein
[1] = E. coli NCM3722 delta-clpP delta-lon delta-hslV, growth: N-lim chemostat, doubling time 6 h
[2] = E. coli NCM3722 delta-clpP, growth: N-lim chemostat, doubling time 6 h
[3] = E. coli NCM3722 delta-hslV, growth: N-lim chemostat, doubling time 6 h
[4] = E. coli NCM3722 delta-lon, growth: N-lim chemostat, doubling time 6 h
[5] = E. coli NCM3722 delta-smpB, growth: N-lim chemostat, doubling time 6 h
[6] = wild type E. coli NCM3722, growth: C-lim chemostat, doubling time 3 h
[7] = wild type E. coli NCM3722, growth: C-lim chemostat, doubling time 6 h
[8] = wild type E. coli NCM3722, growth: C-lim chemostat, doubling time 12 h
[9] = wild type E. coli NCM3722, growth: N-lim chemostat, doubling time 6 h
[10] = wild type E. coli NCM3722, growth: N-lim chemostat, doubling time 12 h
[11] = wild type E. coli NCM3722, growth: P-lim chemostat, doubling time 6 h
[12] = wild type E. coli NCM3722, growth: P-lim chemostat, doubling time 12 h

MAMYQNMLVVIDPNQDDQPALRRAVYLHQRIGGKIKAFLPIYDFSYEMTTLLSPDERTAMRQGVISQRTAWIHEQAKYYLNAGVPIEIKVVWHNRPFEAIIQEVISGGHDLVLKMAHQHDRLEAVIFTPTDWHLLRKCPSPVWMVKDQPWPEGGKALVAVNLASEEPYHNALNEKLVKETIELAEQVNHTEVHLVGAYPVTPINIAIELPEFDPSVYNDAIRGQHLLAMKALRQKFGINENMTHVEKGLPEEVIPDLAEHLQAGIVVLGTVGRTGISAAFLGNTAEQVIDHLRCDLLVIKPDQYQTPVELDDEEDD [P0AAC0]
total protein half-life in vivo [1]: 4.78 ± 0.088 h | total protein half-life in vivo [2]: 4.77 ± 0.46 h | total protein half-life in vivo [3]: 4.73 ± 0.4 h | total protein half-life in vivo [4]: 5.473 ± 0.017 h | total protein half-life in vivo [5]: 4.47 ± 0.11 h | total protein half-life in vivo [6]: 2.97 ± 0.39 h | total protein half-life in vivo [7]: 5.6 ± 0.071 h | total protein half-life in vivo [8]: 9.86 ± 0.44 h | total protein half-life in vivo [9]: 5.01 ± 0.17 h | total protein half-life in vivo [10]: 8.64 ± 0.4 h | total protein half-life in vivo [11]: 5.56 ± 0.67 h | total protein half-life in vivo [12]: 12.2 ± 0.15 h

MNIYRLSFVSCLVMAMPCAMAVEFNLNVLDKSMRDRIDISLLKEKGVIAPGEYFVSVAVNNNKISNGQKINWQKKGDKTIPCINDSLVDKFGLKPDIRQSLPQIDRCIDFSSRPEMLFNFDQANQQLNISIPQAWLAWHSENWAPPSTWKEGVAGVLMDYNLFASSYRPQDGSSSTNLNAYGTAGINAGAWRLRSDYQLNKTDSEDNHDQSGGISRTYLFRPLPQLGSKLTLGETDFSSNIFDGFSYTGAALASDDRMLPWELRGYAPQISGIAQTNATVTISQSGRVIYQKKVPPGPFIIDDLNQSVQGTLDVKVTEEDGRVNNFQVSAASTPFLTRQGQVRYKLAAGQPRPSMSHQTENETFFSNEVSWGMLSNTSLYGGLLISDDDYHSAAMGIGQNMLWLGALSFDVTWASSHFDTQQDERGLSYRFNYSKQVDATNSTISLAAYRFSDRHFHSYANYLDHKYNDSDAQDEKQTISLSVGQPITPLNLNLYANLLHQTWWNADASTTANITAGFNVDIGDWRDISISTSFNTTHYEDKDRDNQIYLSISLPFGNGGRVGYDMQNSSHSTIHRMSWNDTLDERNSWGMSAGLQSDRPDNGAQVSGNYQHLSSAGEWDISGTYAASDYSSVSSSWSGSFTATQYGAAFHRRSSTNEPRLMVSTDGVADIPVQGNLDYTNHFGIAVVPLISSYQPSTVAVNMNDLPDGVTVAENVIKETWIEGAIGYKSLASRSGKDVNVIIRNASGQFPPLGADIRQDDSGISVGMVGEEGHAWLSGVAENQLFTVVWGEQSCIIHLPERLEDTTKRLILPCH
total protein half-life in vivo [1]: 3.41 ± 0.16 h | total protein half-life in vivo [2]: 2.97 h | total protein half-life in vivo [7]: 4.23 h | total protein half-life in vivo [9]: 2.94 h | total protein half-life in vivo [10]: 3.79 h | total protein half-life in vivo [11]: 3.94 h | total protein half-life in vivo [12]: 11 ± 0.78 h

MRVFKTKLIRLQLTAEELDALTADFISYKRDGVLPDIFGRDALYDDSFTWPLIKFERVAHIHLANENNPFPPQLRQFSRTNDEAHLVYCQGAFDEQAWLLIAILKPEPHKLARDNNQMHKIGKMAEAFRMRF
total protein half-life in vivo [1]: 7.33 h | total protein half-life in vivo [11]: > 8 h | total protein half-life in vivo [12]: 12.4 ± 1 h

MKITLSKRIGLLAILLPCALALSTTVHAETNKLVIESGDSAQSRQHAAMEKEQWNDTRNLRQKVNKRTEKEWDKADAAFDNRDKCEQSANINAYWEPNTLRCLDRRTGRVITP
total protein half-life in vivo [1]: 6.01 ± 0.36 h | total protein half-life in vivo [3]: 4.407 ± 0.012 h | total protein half-life in vivo [4]: 5.55 ± 1.8 h | total protein half-life in vivo [5]: 4.06 ± 0.71 h | total protein half-life in vivo [7]: 5.07 ± 0.96 h | total protein half-life in vivo [8]: 7.11 ± 3.5 h | total protein half-life in vivo [9]: 4.93 ± 0.28 h | total protein half-life in vivo [10]: 11 ± 1.8 h | total protein half-life in vivo [11]: 5.78 ± 0.18 h | total protein half-life in vivo [12]: 12.4 ± 0.79 h

MIEADRLISAGTTLPEDVADRAIRPKLLEEYVGQPQVRSQMEIFIKAAKLRGDALDHLLIFGPPGLGKTTLANIVANEMGVNLRTTSGPVLEKAGDLAAMLTNLEPHDVLFIDEIHRLSPVVEEVLYPAMEDYQLDIMIGEGPAARSIKIDLPPFTLIGATTRAGSLTSPLRDRFGIVQRLEFYQVPDLQYIVSRSARFMGLEMSDDGALEVARRARGTPRIANRLLRRVRDFAEVKHDGTISADIAAQALDMLNVDAEGFDYMDRKLLLAVIDKFFGGPVGLDNLAAAIGEERETIEDVLEPYLIQQGFLQRTPRGRMATTRAWNHFGITPPEMP [P0A812]
total protein half-life in vivo [2]: 3.14 ± 0.2 h | total protein half-life in vivo [3]: 1.8 ± 0.077 h | total protein half-life in vivo [4]: 2.7 ± 0.38 h | total protein half-life in vivo [5]: 1.63 ± 0.079 h | total protein half-life in vivo [6]: 2.35 ± 0.51 h | total protein half-life in vivo [7]: 3.53 ± 0.55 h | total protein half-life in vivo [8]: 5.83 ± 0.95 h | total protein half-life in vivo [9]: 2.08 ± 0.048 h | total protein half-life in vivo [10]: 2.46 ± 0.039 h | total protein half-life in vivo [11]: 3.14 ± 0.27 h | total protein half-life in vivo [12]: 4.66 ± 0.42 h

MSTTWFVGADWLAEHIDDPEIQIIDARMASPGQEDRNVAQEYLNGHIPGAVFFDIEALSDHTSPLPHMLPRPETFAVAMRELGVNQDKHLIVYDEGNLFSAPRAWWMLRTFGVEKVSILGGGLAGWQRDDLLLEEGAVELPEGEFNAAFNPEAVVKVTDVLLASHENTAQIIDARPAARFNAEVDEPRPGLRRGHIPGALNVPWTELVREGELKTTDELDAIFFGRGVSYDKPIIVSCGSGVTAAVVLLALATLDVPNVKLYDGAWSEWGARADLPVEPVK
total protein half-life in vivo [1]: 4.69 ± 0.49 h | total protein half-life in vivo [2]: 3.98 ± 0.5 h | total protein half-life in vivo [3]: 4.63 ± 0.66 h | total protein half-life in vivo [4]: 6.38 ± 2 h | total protein half-life in vivo [5]: 3.69 ± 0.23 h | total protein half-life in vivo [6]: 3.13 ± 0.094 h | total protein half-life in vivo [7]: 5.74 ± 0.92 h | total protein half-life in vivo [8]: 9.46 ± 0.71 h | total protein half-life in vivo [9]: 4.51 ± 0.59 h | total protein half-life in vivo [10]: 6.87 ± 0.19 h | total protein half-life in vivo [11]: 5.58 ± 0.12 h | total protein half-life in vivo [12]: 11 ± 0.56 h

MSLVTDLPAIFDQFSEARQTGFLTVMDLKERGIPLVGTYCTFMPQEIPMAAGAVVVSLCSTSDETIEEAEKDLPRNLCPLIKSSYGFGKTDKCPYFYFSDLVVGETTCDGKKKMYEYMAEFKPVHVMQLPNSVKDDASRALWKAEMLRLQKTVEERFGHEISEDALRDAIALKNRERRALANFYHLGQLNPPALSGSDILKVVYGATFRFDKEALINELDAMTARVRQQWEEGQRLDPRPRILITGCPIGGAAEKVVRAIEENGGWVVGYENCTGAKATEQCVAETGDVYDALADKYLAIGCSCVSPNDQRLKMLSQMVEEYQVDGVVDVILQACHTYAVESLAIKRHVRQQHNIPYIAIETDYSTSDVGQLSTRVAAFIEML
total protein half-life in vivo [6]: 1.59 ± 0.089 h | total protein half-life in vivo [7]: 1.98 h | total protein half-life in vivo [8]: 2.51 ± 0.083 h
